Laboratory results reported in article doi:10.1101/2022.01.05.475133 (bioRxiv, 2022).

B1: GFP-tagged WT human TRPA1 (natural protein, UniProt O75762 1-1119, looked up)
chain: MKRSLRKMWRPGEKKEPQGVVYEDVPDDTEDFKESLKVVFEGSAYGLQNFNKQKKLKRCDDMDTFFLHYAAAEGQIELMEKITRDSSLEVLHEMDDYGNTPLHCAVEKNQIESVKFLLSRGANPNLRNFNMMAPLHIAVQGMNNEVMKVLLEHRTIDVNLEGENGNTAVIIACTTNNSEALQILLKKGAKPCKSNKWGCFPIHQAAFSGSKECMEIILRFGEEHGYSRQLHINFMNNGKATPLHLAVQNGDLEMIKMCLDNGAQIDPVEKGRCTAIHFAATQGATEIVKLMISSYSGSVDIVNTTDGCHETMLHRASLFDHHELADYLISVGADINKIDSEGRSPLILATASASWNIVNLLLSKGAQVDIKDNFGRNFLHLTVQQPYGLKNLRPEFMQMQQIKELVMDEDNDGCTPLHYACRQGGPGSVNNLLGFNVSIHSKSKDKKSPLHFAASYGRINTCQRLLQDISDTRLLNEGDLHGMTPLHLAAKNGHDKVVQLLLKKGALFLSDHNGWTALHHASMGGYTQTMKVILDTNLKCTDRLDEDGNTALHFAAREGHAKAVALLLSHNADIVLNKQQASFLHLALHNKRKEVVLTIIRSKRWDECLKIFSHNSPGNKCPITEMIEYLPECMKVLLDFCMLHSTEDKSCRDYYIEYNFKYLQCPLEFTKKTPTQDVIYEPLTALNAMVQNNRIELLNHPVCKEYLLMKWLAYGFRAHMMNLGSYCLGLIPMTILVVNIKPGMAFNSTGIINETSDHSEILDTTNSYLIKTCMILVFLSSIFGYCKEAGQIFQQKRNYFMDISNVLEWIIYTTGIIFVLPLFVEIPAHLQWQCGAIAVYFYWMNFLLYLQRFENCGIFIVMLEVILKTLLRSTVVFIFLLLAFGLSFYILLNLQDPFSSPLLSIIQTFSMMLGDINYRESFLEPYLRNELAHPVLSFAQLVSFTIFVPIVLMNLLIGLAVGDIAEVQKHASLKRIAMQVELHTSLEKKLPLWFLRKVDQKSTIVYPNKPRSGGMLFHIFCFLFCTGEIRQEIPNADKSLEMEILKQKYRLKDLTFLLEKQHELIKLIIQKMEIISETEDDDSHCSFQDRFKKEQMEQRNSRWNTVLRAVKAKTHHLEP
B2: Strep-MBP-R919* human TRPA1 (domain or fragment, UniProt O75762 1-918, looked up)
chain: MKRSLRKMWRPGEKKEPQGVVYEDVPDDTEDFKESLKVVFEGSAYGLQNFNKQKKLKRCDDMDTFFLHYAAAEGQIELMEKITRDSSLEVLHEMDDYGNTPLHCAVEKNQIESVKFLLSRGANPNLRNFNMMAPLHIAVQGMNNEVMKVLLEHRTIDVNLEGENGNTAVIIACTTNNSEALQILLKKGAKPCKSNKWGCFPIHQAAFSGSKECMEIILRFGEEHGYSRQLHINFMNNGKATPLHLAVQNGDLEMIKMCLDNGAQIDPVEKGRCTAIHFAATQGATEIVKLMISSYSGSVDIVNTTDGCHETMLHRASLFDHHELADYLISVGADINKIDSEGRSPLILATASASWNIVNLLLSKGAQVDIKDNFGRNFLHLTVQQPYGLKNLRPEFMQMQQIKELVMDEDNDGCTPLHYACRQGGPGSVNNLLGFNVSIHSKSKDKKSPLHFAASYGRINTCQRLLQDISDTRLLNEGDLHGMTPLHLAAKNGHDKVVQLLLKKGALFLSDHNGWTALHHASMGGYTQTMKVILDTNLKCTDRLDEDGNTALHFAAREGHAKAVALLLSHNADIVLNKQQASFLHLALHNKRKEVVLTIIRSKRWDECLKIFSHNSPGNKCPITEMIEYLPECMKVLLDFCMLHSTEDKSCRDYYIEYNFKYLQCPLEFTKKTPTQDVIYEPLTALNAMVQNNRIELLNHPVCKEYLLMKWLAYGFRAHMMNLGSYCLGLIPMTILVVNIKPGMAFNSTGIINETSDHSEILDTTNSYLIKTCMILVFLSSIFGYCKEAGQIFQQKRNYFMDISNVLEWIIYTTGIIFVLPLFVEIPAHLQWQCGAIAVYFYWMNFLLYLQRFENCGIFIVMLEVILKTLLRSTVVFIFLLLAFGLSFYILLNLQDPFSSPLLSIIQTFSMMLGDINY

Tests used:
SEC = target: the molecule itself; assay: SEC
[1] = target: 3xFLAG-tagged WT human TRPA1 (human, UniProt O75762 1-1119); assay: co-IP + SEC
FLAG-MBP-WT human TRPA1 = FLAG-MBP-WT human TRPA1 (human, UniProt O75762 1-1119); assay: pull-down + co-IP

Binder	stoichiometry N (SEC)	stoichiometry N [1]	stoichiometry N (FLAG-MBP-WT human TRPA1)
B1	4	4	–
B2	–	–	1.3 R919* subunits per WT subunit
